One block for each molecule: values may come before it.
Tests used:
[1] = biological target: amyloid beta peptide Aβ 1–42 (fibrils)
[2] = biological target: amyloid beta peptide Aβ 3–28 (fibrils)

decrease of SANS scattering intensity at q < 0.01 between the beginning (300 s) and the end of the kinetic experiment (fibril disaggregation; 37 °C, deuterated HCC 1 mg/mL) [1]: 4%
Molecule: human cystatin C (wild type) (from UniProt P01034 27-146) (natural protein)

decrease of SANS scattering intensity at q < 0.01 between the beginning (300 s) and the end of the kinetic experiment (fibril disaggregation; 37 °C, deuterated HCC 1 mg/mL, 1–10 h) [2]: > 70%
B1: human cystatin C (wild type) (natural protein)
chain: SSPGKPPRLVGGPMDASVEEEGVRRALDFAVGEYNKASNDMYHSRALQVVRARKQIVAGVNYFLDVELGRTTCTKTQPNLDNCPFHDQPHLKRKAFCSFQIYAVPWQGTMTLSKSTCQDA
modifications: 2H-labelled (deuterated) in D-HCC; protonated in H-HCC
